# From patent US20240182536A1 (MURAL ONCOLOGY, published 2024)
# Residue numbers refer to the chain shown, from its start. Names and notes keep the numbering of the source.
# B1: IL-18 variant M60K (ligand)
# chain: YFGKLESKLSVIRNLNDQVLFIDQGNRPLFEDMTDSDMRDNAPRTIFIISMYKDSQPRGKAVTISVKSEKISTLSSENKIISFKEMNPPDNIKDTKSDIIFFQRSVPGHDNKMQFESSSYEGYFLASEKERDLFKLILKKEDELGDRSIMFTVQNED
# B2: IL-18 variant M60K, D157E (ligand)
# chain: B1 chain with D157E
# B3: IL-18 variant G3D, E6G, K53G, D54A, T63S, N91Y, R104Q (ligand)
# chain: B1 chain with G3D, E6G, K53G, D54A, K60M, T63S, N91Y, R104Q
# B4: IL-18 variant G3L, E6Y, D54T, T63S, N91Y, R104Q (ligand)
# chain: B1 chain with G3L, E6Y, D54T, K60M, T63S, N91Y, R104Q
# B5: IL-18 variant G3L, E6S, D54T, T63S, N91Y, R104Q (ligand)
# chain: B1 chain with G3L, E6S, D54T, K60M, T63S, N91Y, R104Q
# B6: IL-18 variant G3L, E6Q, T63S, N91L, R104T (ligand)
# chain: B1 chain with G3L, E6Q, K60M, T63S, N91L, R104T
# B7: IL-18 variant G3Q, E6K, D54S, S55P, T63S, N91S, R104Q (ligand)
# chain: B1 chain with G3Q, E6K, D54S, S55P, K60M, T63S, N91S, R104Q
# B8: IL-18 variant G3S, E6G, D54V, S55K, T63S, N91Y, R104T (ligand)
# chain: B1 chain with G3S, E6G, D54V, S55K, K60M, T63S, N91Y, R104T
# B9: IL-18 variant G3Q, E6G, D54N, S55H, T63V, N91M, R104T (ligand)
# chain: B1 chain with G3Q, E6G, D54N, S55H, K60M, T63V, N91M, R104T
# B10: IL-18 variant G3Y, E6N, N91Y, R104S (ligand)
# chain: B1 chain with G3Y, E6N, K60M, N91Y, R104S
# B11: IL-18 variant G3E, E6H, R27S, D54A, S55T, T63S, N91F, R104S (ligand)
# chain: B1 chain with G3E, E6H, R27S, D54A, S55T, K60M, T63S, N91F, R104S
# B12: IL-18 variant G3I, E6Q, N91M, R104Y (ligand)
# chain: B1 chain with G3I, E6Q, K60M, N91M, R104Y
# B13: IL-18 variant G3E, E6G, N91M, R104A (ligand)
# chain: B1 chain with G3E, E6G, K60M, N91M, R104A
# B14: IL-18 variant G3Q, E6N (ligand)
# chain: B1 chain with G3Q, E6N, K60M
# B15: IL-18 variant E6G, D54A, S55K, T63S, N91K, Q114R (ligand)
# chain: B1 chain with E6G, D54A, S55K, K60M, T63S, N91K, Q114R
# B16: IL-18 variant E6D, D54T, S55W, T63S, N91S, R104T (ligand)
# chain: B1 chain with E6D, D54T, S55W, K60M, T63S, N91S, R104T
# B17: IL-18 variant G3I, E6D, D54A, S55F, N91Y, R104H (ligand)
# chain: B1 chain with G3I, E6D, D54A, S55F, K60M, N91Y, R104H
# B18: IL-18 variant G3L, E6Q, D54Y, S55P, T63S, N91S, R104Q (ligand)
# chain: B1 chain with G3L, E6Q, D54Y, S55P, K60M, T63S, N91S, R104Q
# B19: IL-18 variant G3D, E6Q, R27S, K53R, D54A, S55R, T63S, N91Q (ligand)
# chain: B1 chain with G3D, E6Q, R27S, K53R, D54A, S55R, K60M, T63S, N91Q
# B20: IL-18 variant G3Q, E6H, D54N, S55I, T63S, N91V (ligand)
# chain: B1 chain with G3Q, E6H, D54N, S55I, K60M, T63S, N91V
# B21: IL-18 variant G3Q, E6S, S55V, T63A, N91T (ligand)
# chain: B1 chain with G3Q, E6S, S55V, K60M, T63A, N91T
# B22: IL-18 variant G3Q, E6N, D54Y, S55P, T63S, N91S, R104H (ligand)
# chain: B1 chain with G3Q, E6N, D54Y, S55P, K60M, T63S, N91S, R104H
# B23: hIL18 (G3V, K53S, M60K) - KiH (Fc fusion)
# chain: B1 chain with G3V, K53S
# Molecular target: T1, human IL-18 binding protein (IL-18BP) (human, UniProt O95998 31-194)
# T1 sequence (looked up): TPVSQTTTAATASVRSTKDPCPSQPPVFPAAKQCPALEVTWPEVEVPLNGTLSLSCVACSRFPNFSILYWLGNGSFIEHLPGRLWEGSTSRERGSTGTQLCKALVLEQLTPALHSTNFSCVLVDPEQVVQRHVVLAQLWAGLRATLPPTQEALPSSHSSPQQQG
# Assay: cell-based or functional assay
Binder,"Fold Change (BP/NO BP), 50 nM BP [fold]","Fold Change (BP/NO BP), 300 nM BP [fold]","HEK-Blue EC50 pM, +50 nM BP [pM]",HEK-blue EC50 (pM) + 300 nM BP [pM]
B1,1.64,9.67,4.77,38.3
B2,1.25,9.04,1.62,15.1

# Molecular target: T2, IL-18 receptors on HEK-Blue IL-18 reporter cells (InvivoGen) (UniProt Q13478 19-541; O95256 20-599)
# T2 sequence (looked up) 1: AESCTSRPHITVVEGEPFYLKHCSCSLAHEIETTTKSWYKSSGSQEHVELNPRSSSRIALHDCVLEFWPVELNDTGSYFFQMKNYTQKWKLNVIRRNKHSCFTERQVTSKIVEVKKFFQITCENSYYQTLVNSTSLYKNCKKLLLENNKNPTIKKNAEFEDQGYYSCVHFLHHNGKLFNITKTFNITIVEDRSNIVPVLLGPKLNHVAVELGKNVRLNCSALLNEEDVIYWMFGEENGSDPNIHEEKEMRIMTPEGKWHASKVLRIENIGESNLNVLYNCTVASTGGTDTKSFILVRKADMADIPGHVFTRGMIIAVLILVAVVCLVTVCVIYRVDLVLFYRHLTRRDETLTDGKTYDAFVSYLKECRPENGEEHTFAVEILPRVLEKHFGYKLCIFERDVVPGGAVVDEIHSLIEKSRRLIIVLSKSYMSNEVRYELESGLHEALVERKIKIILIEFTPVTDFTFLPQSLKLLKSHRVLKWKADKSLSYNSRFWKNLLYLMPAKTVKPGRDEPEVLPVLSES
# T2 sequence (looked up) 2: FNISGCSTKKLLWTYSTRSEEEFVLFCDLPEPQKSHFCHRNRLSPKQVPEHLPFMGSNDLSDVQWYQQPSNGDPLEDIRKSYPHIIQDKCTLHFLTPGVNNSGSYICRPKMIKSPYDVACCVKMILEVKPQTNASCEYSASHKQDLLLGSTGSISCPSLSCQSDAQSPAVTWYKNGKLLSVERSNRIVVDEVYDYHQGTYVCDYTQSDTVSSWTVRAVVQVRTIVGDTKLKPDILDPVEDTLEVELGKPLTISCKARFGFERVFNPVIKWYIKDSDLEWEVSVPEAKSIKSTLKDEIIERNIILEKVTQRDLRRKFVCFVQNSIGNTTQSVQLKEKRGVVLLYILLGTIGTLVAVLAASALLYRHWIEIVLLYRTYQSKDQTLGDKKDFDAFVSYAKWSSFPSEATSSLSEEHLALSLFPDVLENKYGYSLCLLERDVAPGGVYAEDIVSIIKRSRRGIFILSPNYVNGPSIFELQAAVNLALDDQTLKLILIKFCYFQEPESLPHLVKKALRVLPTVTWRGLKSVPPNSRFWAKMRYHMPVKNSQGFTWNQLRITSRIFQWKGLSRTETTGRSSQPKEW
# Assay: cell-based or functional assay
Binder,"HEK-Blue EC50 pM, NO BP (50 nM BP run) [pM]","HEK-Blue EC50 pM, NO BP (300 nM BP run) [pM]"
B1,2.9,3.96
B2,1.3,1.67

# Molecular target: T3, IL-18 receptor (IL-18Rα and IL-18Rβ) (UniProt Q13478 19-541; O95256 20-599, limits assumed)
# T3 sequence (looked up) 1: T2 sequence (looked up) 1
# T3 sequence (looked up) 2: T2 sequence (looked up) 2
# Assay: cell-based or functional assay
row,Binder,"EC50 (pM) - BP, HEK-blue re-screening [pM]"
1,B3,2.62
2,B4,0.03
3,B5,0.02

# Molecular target: T4, interleukin 18 binding protein (IL-18BP) (UniProt O95998 31-194)
# T4 sequence (looked up): T1 sequence (looked up)
# Assay: cell-based or functional assay
Binder,"EC50 (pM) + 300 nM BP, HEK-blue re-screening [pM]","Ratio (HEK-blue EC50, + 300 nM BP against - BP)"
B3,3.11,1.2
B4,0.37,12.3
B5,0.51,25.5

# Molecular target: T3, IL-18 receptor (IL-18Rα and IL-18Rβ)
# Assay: cell-based or functional assay
# Remark: another data set of the same source
row,Binder,"EC50 (pM) - BP, HEK-blue re-screening [pM]"
1,B6,0.03
2,B7,0.27
3,B8,0.21
4,B9,0.99
5,B10,0.09
6,B11,0.34
7,B12,0.07
8,B13,0.17
9,B14,0.05
10,B15,0.1
11,B16,3.42
12,B17,0.45
13,B18,1.35
14,B19,4.22
15,B20,0.31
16,B21,0.2
17,B22,9.63

# Molecular target: T4, interleukin 18 binding protein (IL-18BP)
# Assay: cell-based or functional assay
# Remark: another data set of the same source
Binder,"EC50 (pM) + 100 nM BP, HEK-blue re-screening [pM]","Ratio (HEK-blue EC50, + 100 nM BP against - BP)"
B6,1.67,55.7
B7,7.45,27.6
B8,4.87,23.2
B9,2.66,2.7
B10,2.89,32.1
B11,3.01,8.9
B12,3.77,53.9
B13,3.49,20.5
B14,8.61,172
B15,2.17,21.7
B16,62.8,18.4
B17,3.41,7.6
B18,54.7,40.5
B19,25.7,6.1
B20,5.23,16.9
B21,35.9,180
B22,34.7,3.6

# Molecular target: T3, IL-18 receptor (IL-18Rα and IL-18Rβ)
# Assay: cell-based or functional assay
# Remark: another data set of the same source
Binder,"EC50 (pM), PBMC IFN gamma assay, average [pM]","EC50 (pM), PBMC IFN gamma assay, run 1 [pM]","EC50 (pM), PBMC IFN gamma assay, run 2 [pM]","EC50 (pM), PBMC IFN gamma assay, run 3 [pM]","PBMC IFN gamma EC50 relative to WT-IL18, average","PBMC IFN gamma EC50 relative to WT-IL18, run 1","PBMC IFN gamma EC50 relative to WT-IL18, run 2","PBMC IFN gamma EC50 relative to WT-IL18, run 3"
B23,576,589,535,603,3.75,2.45,5.08,3.73
